Target: GW182 (TNRC6A), short isoform (mouse (endogenous in OT-I CD8+ T cells))
Experiment: co-IP; anti-GW182 antibody on Protein G Dynabeads; lysates of naive (d0) and d6 activated OT-I CD8+ T cells, 2 x 10^7 cells per IP; bound and unbound fractions blotted with Ago2 and GW182 antibodies

- percent of Ago2 associated with immunoprecipitated GW182 (d6): 50%
Substance: Argonaute 2 (Ago2) (from UniProt Q8CJG0 1-860) (natural protein)

Reference: publication PMC10726160
